Measurements as given in patent publication US9993440.

What was measured:
[1] = system: T1, plasmin-cleavable crosslinker KNRVK (bisacryloylated Lys-Asn-Arg-Val-Lys)
T1 sequence: KNRVK

[2] = system: T2, MMP-cleavable crosslinker KLGPAK (Lys-Leu-Gly-Pro-Ala-Lys)
T2 sequence: KLGPAK

plasmin, sequence (P00747 20-580): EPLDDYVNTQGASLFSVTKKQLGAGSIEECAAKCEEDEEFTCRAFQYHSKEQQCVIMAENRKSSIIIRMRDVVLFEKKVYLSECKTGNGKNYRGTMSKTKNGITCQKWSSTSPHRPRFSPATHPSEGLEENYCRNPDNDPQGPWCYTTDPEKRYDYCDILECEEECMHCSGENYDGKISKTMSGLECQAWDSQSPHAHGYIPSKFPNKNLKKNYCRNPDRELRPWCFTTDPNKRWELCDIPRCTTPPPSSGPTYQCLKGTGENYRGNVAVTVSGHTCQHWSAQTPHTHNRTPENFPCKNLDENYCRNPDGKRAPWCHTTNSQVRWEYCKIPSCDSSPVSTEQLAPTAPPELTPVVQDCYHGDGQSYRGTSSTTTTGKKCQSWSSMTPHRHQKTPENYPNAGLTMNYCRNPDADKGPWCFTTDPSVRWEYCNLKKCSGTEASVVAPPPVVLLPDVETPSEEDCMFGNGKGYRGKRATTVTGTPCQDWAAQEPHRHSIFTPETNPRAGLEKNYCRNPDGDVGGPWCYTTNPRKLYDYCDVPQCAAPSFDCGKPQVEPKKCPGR
plasmin, sequence (P00747 581-810): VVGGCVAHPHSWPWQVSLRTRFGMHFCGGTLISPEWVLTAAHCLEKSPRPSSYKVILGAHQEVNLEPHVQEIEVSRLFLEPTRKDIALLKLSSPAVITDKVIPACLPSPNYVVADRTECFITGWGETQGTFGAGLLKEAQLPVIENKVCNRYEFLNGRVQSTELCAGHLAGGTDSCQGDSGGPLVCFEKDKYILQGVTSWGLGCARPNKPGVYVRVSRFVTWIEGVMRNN

Substance | release of VEGF from de-nVEGFplasmin (100%-peptide crosslinker) (ELISA) [1] | release of BSA from nBSANRV (SDS-PAGE, 30 min) [1] | degradation of the polymer shells of nBSALGPA (DLS) [2] | VEGF released from nVEGF formed with 100% degradable crosslinker (ELISA, with plasmin) [1] | release percentage of VEGF from de-nVEGFplasmin (100%-peptide crosslinker) (ELISA) [1] | release of BSA from nBSALGPA (SDS-PAGE, 30 min) [2]
trypsin | only extended periods of incubation with trypsin and collagenase IV had releases of VEGF | – | – | – | – | –
collagenase (a bacterial equivalent of MMP) | – | nBSANRV without exposure to plasmin (line 2) or after exposure to collagenase (line 4) does not show any well-defined band | Exposing nBSALGPA to collagenase results in specific degradation of the polymer shells | – | – | –
plasmin | – | does exhibit a well-defined band (line 3) similar to that of native BSA upon exposure to plasmin | – | released 95% of the VEGF used to form the nanocapsules | plasmin-incubated nVEGF showed about 60% release percentage | plasmin is incapable of triggering release of BSA from MMP-specific nBSALGPA
